Here are results for eight substances from patent US20040175786A1.

In one test the target is human CD3 (TCR/CD3 complex) on T-cells (human) (UniProt P07766). Description: cell-based or functional assay.
Consider “scOKT3-γ?IgM, WT Monomers (from UniProt P01871 218-435) (Fc fusion)”, for which the IL-2 production amounted to 52 pg/mL; the INF-γ-production was found to be 222 pg/mL; the T-cell proliferation, immobilized Ak [cpm × 10^3] came out at 4000 cpm; the T-cell proliferation, soluble Ak [cpm × 10^3] is 1800 cpm. In addition, the TNF-α-production was found to be 166 pg/mL.

The substance “scOKT3-γ?IgM, WT Pentamers/hexamers (from UniProt P01871 218-435) (Fc fusion)” displayed an IL-2 production of 42 pg/mL; an INF-γ-production of 232 pg/mL; a T-cell proliferation, immobilized Ak [cpm × 10^3] of 3500 cpm; a T-cell proliferation, soluble Ak [cpm × 10^3] of 2100 cpm. The substance also came in with a TNF-α-production of 158 pg/mL.

monoclonal OKT3 antibody yielded an IL-2 production of 467 pg/mL; an INF-γ-production of 1380 pg/mL; a T-cell proliferation, immobilized Ak [cpm × 10^3] of 12500 cpm; a T-cell proliferation, soluble Ak [cpm × 10^3] of 9500 cpm. The TNF-α-production came out at 960 pg/mL.

Regarding “scOKT3-γ?IgM, WT (from UniProt P01871 218-435) (Fc fusion)”, the IL-2 production was 47 pg/mL; the INF-γ-production turned out to be 244 pg/mL; the T-cell proliferation, immobilized Ak [cpm × 10^3] is 4600 cpm; the T-cell proliferation, soluble Ak [cpm × 10^3] amounted to 2600 cpm. This substance yielded a TNF-α-production of 167 pg/mL.

With “scOKT3-γ?IgM, C575S Monomers (from UniProt P01871 218-435) (Fc fusion)”, the IL-2 production turned out to be 73 pg/mL; the INF-γ-production came out at 189 pg/mL; the T-cell proliferation, immobilized Ak [cpm × 10^3] was 3700 cpm; the T-cell proliferation, soluble Ak [cpm × 10^3] worked out at 2400 cpm. The TNF-α-production came out at 169 pg/mL.

Turning to “scOKT3-γ?IgM, C575S (from UniProt P01871 218-435) (Fc fusion)”, the IL-2 production is 65 pg/mL; the INF-γ-production is 202 pg/mL; the T-cell proliferation, immobilized Ak [cpm × 10^3] worked out at 3300 cpm; the T-cell proliferation, soluble Ak [cpm × 10^3] worked out at 1900 cpm. This substance gave a TNF-α-production of 149 pg/mL.

The target is the same in another test. Nature of the test: FACS staining of CD3+ Jurkat cells.
Turning to monoclonal OKT3 antibody, the percent of Jurkat cells with positive staining is over 90%.

For another test the target is unchanged. Nature of the test: FACS staining of CD3+ Jurkat cells with polymer fractions.
scOKT3-γ?IgM monomers: the percent of Jurkat cells with positive staining is 80%.

scOKT3-γ?IgM pentamers: the percent of Jurkat cells with positive staining is over 90%.
